Data reported in US20230349919A1.

B1: Candidate ID 16 (antibody, V domains shown)
VH: EVHLQQSGPDLVKPGASVMISCQASGYSFTAYYINWVKQSPEKSLEWIGEINPGSGGVIYNRKFEAKATLIVDKSSNTAFMLLTRLTSEDSAIYYCARKGFYQFDYWGQGTTLTVSS
VL: SVVMTQIPKFLVVSAGDRVTITCKASQSVNDGVFWYQQKTGQSPKLVIYHTSNRYTGVSDRFTGSGYGTEFTFTISAVQSEDLAIYFCQQDYTSPLTFGGGTRLEIK
B2: Candidate ID 9 (antibody, V domains shown)
VH: EVQLQQSGPELVKPGASVKISCKASGYTFTDYYMNWVKQSHGKSLEWIGDINPNNGGTSYNQKFKGKATLTVDKSSSTAYMELRSLTSEDSAVYYCAYGPPRGPPWFAYWGQGTLVTVSA
VL: DIVLTQSPASLAVSLGQRATISCRASKSVSTSGYSYMHWYQQKPGQPPKLLIYLASNLESGVPARFSGSGSGTDFTLNIHPVEEEDAATYYCQHSRELPWTFGGGTKLEIK
B3: IgE mAb 13_2 (antibody, V domains shown)
VH: B2 VH
VL: B2 VL
B4: Candidate ID 13 (antibody, V domains shown)
VH: QAYLQQSGAELVRPGASVKMSCKASGYTFISYNMHWVKQTRRQGLEWIGAIYPGNGDTSYNQKFKGKATLTVDKSSSTAYMQLSSLTSEDSAVYFCARWDYYGSSYGAYWGQGTLVTVSA
VL: DIQMTQSPASLSVSVGETVTITCRASENIYSNLAWYQQKQGKSPQLLVYAATNLADGVPSRFSGSGSGTQYSLKINSLQSEDFGSYYCQHFWGTPWTFGGGTKLEIK
B5: Candidate ID 21 (antibody, V domains shown)
VH: QVQLQQSGPELVKPGASVKISCKAPGNAFSYSWMNWVKQRPGKGLEWVGRIYPGDGDTNYNGKFMGKATLTADKSSNTAYIQLSSLTSEDSAVYFCARSGGGTLYWYFDVWGTGTTVTVSS
VL: DIVMTQSPSSLALSVGQKVTMNCRSSQSLLNSFNQKNYLAWFQQKPGQSPRLLIYFASTRESGVPDRFIGSGSGTDFTLTISSVQAEDLADYFCQQHYNTPLTFGAGTTLELK
B6: Candidate ID 7 (antibody, V domains shown)
VH: QVLLKESGPGLVAPSQSLSITCTVSGFSLTSYGVSWVRQPPGKGLEWLGVIWGDGNTDYHSALISRLSIRKDNSKSQVFLKLNSLQTDDTATYYCAIGSPFAYWGQGTLVTVSA
VL: DVLMTQTPLSLPVSLGDQVSISCRSSQNIVHSTGNTYLEWYLQKPGQSPKLLIFKVSNRLSGVPDRFSGSGSGTDFTLNISRVEAADLGIYSCFQGSHVPFTFGSGTKLEIK

Tests used:
Ole e 1 (olive) [1] = target: Ole e 1 (olive) (UniProt P19963); assay: barcoded antigen sequencing of single IgE PCs with trapped IgE [cont.]
Ole e 1 (olive), sequence (P19963 whole entry): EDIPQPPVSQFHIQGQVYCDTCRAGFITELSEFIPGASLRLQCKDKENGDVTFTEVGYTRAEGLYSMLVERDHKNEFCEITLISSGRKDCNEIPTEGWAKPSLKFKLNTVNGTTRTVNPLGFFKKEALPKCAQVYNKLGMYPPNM

Ole e 1 (olive) [2] = target: Ole e 1 (olive) (UniProt P19963); assay: barcoded antigen sequencing of single IgE PCs with trapped IgE
[3] = target: Der p 2 (house dust mite) (UniProt P49278); assay: antigen specificity score against Ole e 1 from barcode counts of single IgE PCs [cont.]
Der p 2 (house dust mite), sequence (P49278 18-146 limits assumed): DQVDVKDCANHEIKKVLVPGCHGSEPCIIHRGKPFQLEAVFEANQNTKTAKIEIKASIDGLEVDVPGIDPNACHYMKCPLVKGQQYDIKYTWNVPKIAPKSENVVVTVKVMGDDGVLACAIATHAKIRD

[4] = target: Der f 1 (house dust mite) (UniProt P16311); assay: as above
Der f 1 (house dust mite), sequence (P16311 99-321 limits assumed): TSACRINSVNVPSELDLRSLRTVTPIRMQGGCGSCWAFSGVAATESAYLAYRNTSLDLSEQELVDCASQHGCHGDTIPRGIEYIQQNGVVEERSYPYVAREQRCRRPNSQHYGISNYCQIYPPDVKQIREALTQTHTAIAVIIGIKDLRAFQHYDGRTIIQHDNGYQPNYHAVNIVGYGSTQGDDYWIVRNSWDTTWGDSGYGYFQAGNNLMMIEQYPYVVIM

[5] = target: Der p 1 (house dust mite) (UniProt P08176); assay: as above
Der p 1 (house dust mite), sequence (P08176 99-320 limits assumed): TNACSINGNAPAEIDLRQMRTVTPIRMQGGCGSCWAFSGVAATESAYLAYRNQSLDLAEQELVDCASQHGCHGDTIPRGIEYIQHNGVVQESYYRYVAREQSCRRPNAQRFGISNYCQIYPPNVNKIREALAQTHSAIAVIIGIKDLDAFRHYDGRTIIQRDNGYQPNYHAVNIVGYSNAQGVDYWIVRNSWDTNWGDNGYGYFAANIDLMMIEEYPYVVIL

[6] = target: Der p 2 (house dust mite) (UniProt P49278); assay: barcoded antigen sequencing of single IgE PCs with trapped IgE [cont.]
[7] = target: Der f 1 (house dust mite) (UniProt P16311); assay: as above
[8] = target: Der p 1 (house dust mite) (UniProt P08176); assay: as above
[9] = target: Der p 2 (house dust mite) (UniProt P49278); assay: barcoded antigen sequencing of single IgE PCs with trapped IgE
[10] = target: Der f 1 (house dust mite) (UniProt P16311); assay: as above
[11] = target: Der p 1 (house dust mite) (UniProt P08176); assay: as above
[12] = target: Der f 1 (house dust mite) (UniProt P16311); assay: barcoded-antigen count on source cell
[13] = target: Der p 1 (house dust mite) (UniProt P08176); assay: barcoded-antigen count on source cell
[14] = target: Der f 1 (house dust mite) (UniProt P16311); assay: barcode rank score against control Ole e 1
[15] = target: Der p 1 (house dust mite) (UniProt P08176); assay: barcode rank score against control Ole e 1
[16] = target: Der f 1 (house dust mite) (UniProt P16311); assay: centered log-ratio of barcode count
[17] = target: Der p 1 (house dust mite) (UniProt P08176); assay: centered log-ratio of barcode count

Row | Binder | Normalized Barcode Count (Ole e 1 (olive) [1]) | Raw Antigen Barcode Count (Ole e 1 (olive) [2]) | Antigen Score [3] | Antigen Score [4] | Antigen Score [5] | Normalized Barcode Count [6] | Normalized Barcode Count [7] | Normalized Barcode Count [8] | Raw Antigen Barcode Count [9] | Raw Antigen Barcode Count [10] | Raw Antigen Barcode Count [11] | further results
1 | B1 | 0.603 | 3 |  |  |  |  |  |  |  |  |  | 
2 | B2 | 0.029 | 1 | 0.858 | 0.765 | 0.775 | 1.62 | 0.82 | 0.981 | 46 | 15 | 16 | 
3 | B3 |  |  |  |  |  |  |  |  |  |  |  | Derf1 ab raw [12]: 15 counts; Derp1 ab raw [13]: 16 counts; Derf1 ab rank [14]: 0.765; Derp1 ab rank [15]: 0.775; Derf1 ab clr [16]: 0.82; Derp1 ab clr [17]: 0.981
4 | B4 | -0.434 | 1 |  |  |  |  |  |  |  |  |  | 
5 | B5 | 0.826 | 4 |  |  |  |  |  |  |  |  |  | 
6 | B6 | -1.13 | 0 | 0.837 | 0.97 | 0.89 | 0.655 | 1.18 | 0.862 | 22 | 32 | 29 | 
